Source: US20170313754A1 (PROTAGONIST THERAPEUTICS, published 2017)
Where two headings read alike, the source gives them in different places. Blank lines part the entries; values can stand above or below the binder they belong to. Numbered stars: 1 amine (or outer) side, 2 acyl side, 3 side chain; on linkers, the order of the positions; unused ones are H or OH. Square brackets hold non-standard residues; d marks the D form. Primed or numbered codes have the meaning given here. Ends that are not written are not given here. * marks the point of attachment. Ida = iminodiacetic acid, O=C(CN(CC(=O)[*:3])[*:1])[*:2]; PEG3′ = NH2CH2CH2(OCH2CH2)3CH2CH2CO2H (PEG3 linker); Dip = N[C@H](C(=O)O)C(c1ccccc1)c1ccccc1; Palmitoyl = CCCCCCCCCCCCCCCC(=O)*; β3hF = N[C@H](CC(=O)O)Cc1ccccc1; pGlu = O=C1CC[C@@H](C(=O)O)N1; β3hP = O=C(O)C[C@@H]1CCCN1; Isovaleryl = CC(C)CC(=O)*; Palm = palmitoyl

Assays:
Assay in all cases: cell-based or functional assay
[1] = molecular target: T1, human ferroportin (SLC40A1) fused in frame with GFP, stably expressed on HEK293 cells (human, UniProt Q9NP59 1-571)
T1 sequence (looked up): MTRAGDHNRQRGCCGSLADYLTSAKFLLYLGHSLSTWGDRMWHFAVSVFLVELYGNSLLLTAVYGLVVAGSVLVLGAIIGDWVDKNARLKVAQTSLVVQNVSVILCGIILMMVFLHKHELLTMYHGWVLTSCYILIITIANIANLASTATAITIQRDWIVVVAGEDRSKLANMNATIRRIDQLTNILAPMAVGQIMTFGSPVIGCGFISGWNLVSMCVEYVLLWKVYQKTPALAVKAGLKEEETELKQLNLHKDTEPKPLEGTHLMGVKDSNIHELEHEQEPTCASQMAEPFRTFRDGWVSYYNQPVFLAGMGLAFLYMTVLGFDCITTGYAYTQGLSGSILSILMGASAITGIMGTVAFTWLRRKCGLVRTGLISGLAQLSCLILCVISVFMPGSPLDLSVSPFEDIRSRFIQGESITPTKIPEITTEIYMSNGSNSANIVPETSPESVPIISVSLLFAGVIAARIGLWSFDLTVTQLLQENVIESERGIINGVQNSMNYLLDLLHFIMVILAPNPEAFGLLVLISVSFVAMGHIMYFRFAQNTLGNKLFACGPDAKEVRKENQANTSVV

[2] = molecular target: T1, human ferroportin (SLC40A1) fused in …; remark: listed apart in the source
[3] = molecular target: T1, human ferroportin (SLC40A1) fused in …; remark: listed apart in the source
[4] = molecular target: T1, human ferroportin (SLC40A1) fused in …; remark: listed apart in the source
[5] = molecular target: T2, human ferroportin (SLC40A1) fused in frame with GFP, stably expressed on HEK293 cells (human, UniProt Q9NP59 1-571); remark: listed apart in the source
T2 sequence (looked up): T1 sequence (looked up)

[6] = molecular target: T1, human ferroportin (SLC40A1) fused in …; remark: listed apart in the source
[7] = molecular target: T1, human ferroportin (SLC40A1) fused in …; remark: listed apart in the source

- percent at the stated concentration (printed in the Potency EC50 column), ferroportin internalization/degradation assay [2]: 31 % at 10 uM
B2: ([pGlu]-THFPCRKF-NH2)2 (peptide)
peptide: [pGlu]THFPCRKF-NH2
modifications: also: homodimer, linkage of subunits not given here

- Potency EC50 (nM), ferroportin internalization/degradation assay [3]: 580 nM
B4: (isovaleric acid-DTHFPICIFK(Palm)-NH2)2 (peptide)
peptide: DTHFPICIFK
modifications: N-terminal isovaleric acid; Palm on the side chain of Lys 10; C-terminal amide

- Potency EC50 (nM), ferroportin degradation [4]: 712 nM
B6: Mini-Hepcidin 1-9, Hy-DTHFPICIF-NH2 (peptide)
peptide: H-DTHFPICIF-NH2

- Potency EC50 (nM), ferroportin degradation [4]: > 10000 nM
B8: RI-Mini Hepcidin, Hy-DPhe-DIle-DCys-DIle-DPro-DPhe-DHis-DThr-DAsp-NH2 (peptide)
peptide: FICIPFHTD
modifications: all nine residues are D-amino acids (retro inverse); C-terminal amide

- Potency EC50 (nM), ferroportin internalization/degradation assay (loss of GFP fluorescence) [5]: 9 nM
B10: Cmpd6: Isovaleric acid-DTHFPCIIF-[Sarc]-PHSKG-[N-MeTrp]-VC-NH2 (peptide)
peptide: DTHFPCIIFXPHSKGWVC
modifications: N-terminal isovaleric acid; sarcosine [Sarc] at position 10; N-methyl-tryptophan [N-MeTrp] at position 16; C-terminal amide (-NH2)

- EC50 (nM) (n > 3), ferroportin internalization/degradation assay [6]: 30 nM
- EC50 (nM) (n > 3), ferroportin internalization/degradation assay [7]: 30 nM
B11: (Isovaleric acid-DTHFPCIKF)2[Lys]-NH2 (peptide)
peptide: DTHFPCIKF
modifications: N-terminal isovaleric acid on each subunit; the two subunits are joined at their C-termini through a [Lys]-NH2 linker

Further lines, the binder ahead of its results:

B1: (Ida-TH-Dpa-bhPro-RCR-bhPhe-PEG3-Palm)2 (peptide)
peptide: [Ida]TH[Dip][β3hP]RCR[β3hF]-{PEG3′-Palm}
modifications: also: homodimer, linkage not given here
- Potency EC50 (nM), ferroportin internalization/degradation assay [1]: 31 nM

B3: (Hy-DTHFPICIF-NH2)2 (peptide)
peptide: H-DTHFPICIF-NH2
modifications: also: homodimer, link between subunits not given here
- Potency EC50 (nM), ferroportin internalization/degradation assay [1]: 146 nM

B5: (Hy-DTHFPCLF-NH2)2 (peptide)
peptide: H-DTHFPCLF-NH2
modifications: also: homodimer, link between subunits not given here
- Potency EC50 (nM), ferroportin internalization/degradation assay [2]: 297 nM

B7: (isovaleric acid-DTHFPCIK(Palm)-F-NH2)2 (peptide)
peptide: Isovaleryl-DTHFPCIK(Palmitoyl)F-NH2
modifications: also: homodimer, linkage of subunits not given here
- Potency EC50 (nM), ferroportin internalization/degradation assay [3]: 294 nM

B9: (isovaleric acid-DTHFPCIKFAA-NH2)2 (peptide)
peptide: Isovaleryl-DTHFPCIKFAA-NH2
modifications: also: homodimer, linkage of subunits not given here
- Potency EC50 (nM), ferroportin internalization/degradation assay [3]: 47 nM
